Where two headings read alike, the source gives them in different places.
How the values were obtained:
[1] = biological target: T1, BAP-MED23-6His, biotinylated (human, UniProt Q9ULK4-1 1-1368, biotin on the BAP tag (biotinylated during expression)); test: SPR; BIAcore T200; biotinylated BAP-MED23 captured on a streptavidin SA chip (2000-3000 RU), PBS+ buffer; GST-fused Elk-1 derivatives injected at 0.25-4 µM, single-cycle kinetics in triplicate, 1:1 Langmuir model
T1 construct: Mediator complex subunit MED23, human, isoform 1 (NM_004830.3); Captured by its biotin on a streptavidin SA chip; also called biotinylated MED23; MED23 with a BAP tag; source: insect cells (pFastBac Dual with BirA biotin ligase), purified by the same procedure as MED23-6His; not shown: BAP (biotin acceptor peptide), N-terminal, kept
T1 sequence: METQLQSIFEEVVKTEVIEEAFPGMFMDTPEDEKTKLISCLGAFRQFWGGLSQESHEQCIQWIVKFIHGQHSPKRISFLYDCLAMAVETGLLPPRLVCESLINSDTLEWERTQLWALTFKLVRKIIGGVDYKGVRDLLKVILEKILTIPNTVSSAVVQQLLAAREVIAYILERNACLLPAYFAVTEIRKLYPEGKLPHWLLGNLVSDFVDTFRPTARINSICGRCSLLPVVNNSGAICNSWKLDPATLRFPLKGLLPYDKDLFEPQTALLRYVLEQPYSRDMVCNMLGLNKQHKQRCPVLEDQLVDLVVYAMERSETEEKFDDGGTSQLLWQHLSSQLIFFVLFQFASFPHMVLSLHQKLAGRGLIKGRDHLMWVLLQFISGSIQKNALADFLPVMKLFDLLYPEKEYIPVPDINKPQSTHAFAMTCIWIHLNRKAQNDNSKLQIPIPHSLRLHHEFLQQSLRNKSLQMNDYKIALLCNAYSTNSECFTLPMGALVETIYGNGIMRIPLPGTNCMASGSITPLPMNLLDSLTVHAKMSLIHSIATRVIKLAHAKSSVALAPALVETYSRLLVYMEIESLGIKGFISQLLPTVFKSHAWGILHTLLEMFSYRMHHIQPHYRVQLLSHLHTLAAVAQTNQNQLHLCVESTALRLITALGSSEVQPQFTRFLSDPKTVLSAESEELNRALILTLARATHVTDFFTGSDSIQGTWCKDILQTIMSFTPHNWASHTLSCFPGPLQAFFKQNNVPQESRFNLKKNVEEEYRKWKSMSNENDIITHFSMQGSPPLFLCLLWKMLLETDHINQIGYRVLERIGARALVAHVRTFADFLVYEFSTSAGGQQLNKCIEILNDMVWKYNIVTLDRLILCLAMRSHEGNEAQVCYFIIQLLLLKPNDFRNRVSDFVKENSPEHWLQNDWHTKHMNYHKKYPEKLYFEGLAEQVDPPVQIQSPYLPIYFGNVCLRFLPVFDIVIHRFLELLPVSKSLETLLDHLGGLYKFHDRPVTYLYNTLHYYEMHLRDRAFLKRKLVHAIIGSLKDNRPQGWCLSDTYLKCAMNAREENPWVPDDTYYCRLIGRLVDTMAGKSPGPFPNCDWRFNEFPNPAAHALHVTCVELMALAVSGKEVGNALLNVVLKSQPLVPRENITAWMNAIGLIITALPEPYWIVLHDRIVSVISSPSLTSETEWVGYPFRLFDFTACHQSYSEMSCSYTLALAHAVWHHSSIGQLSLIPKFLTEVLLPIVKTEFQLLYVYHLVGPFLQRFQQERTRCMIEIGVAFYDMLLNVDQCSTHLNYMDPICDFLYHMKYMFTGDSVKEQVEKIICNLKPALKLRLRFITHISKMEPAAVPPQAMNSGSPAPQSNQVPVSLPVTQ

[2] = biological target: T2, MED23-6His (human Mediator complex subunit MED23, wild type) (human, UniProt Q9ULK4-1 1-1368); test: pull-down; 4 µg GST constructs immobilised on GST-Trap agarose; 20 µg recombinant MED23 or MED23 G382F, 90 min at 4 °C in PBS-casein; SDS-PAGE, Coomassie; settings: both partners purified
T2 construct: Mediator complex subunit MED23, human, isoform 1 (NM_004830.3); cloned before a rhinovirus 3C protease site followed by a 6xHis tag; The stored protein is named MED23-6His; cleavage by 3C protease is not reported; In the functional rows MED23 WT was expressed from PIN510A-1 or FC550A-1 plasmids in MED23-/- MEFs; also called MED23 WT; recombinant MED23; source: ExpiSF9 insect cells (baculovirus), …
T2 sequence: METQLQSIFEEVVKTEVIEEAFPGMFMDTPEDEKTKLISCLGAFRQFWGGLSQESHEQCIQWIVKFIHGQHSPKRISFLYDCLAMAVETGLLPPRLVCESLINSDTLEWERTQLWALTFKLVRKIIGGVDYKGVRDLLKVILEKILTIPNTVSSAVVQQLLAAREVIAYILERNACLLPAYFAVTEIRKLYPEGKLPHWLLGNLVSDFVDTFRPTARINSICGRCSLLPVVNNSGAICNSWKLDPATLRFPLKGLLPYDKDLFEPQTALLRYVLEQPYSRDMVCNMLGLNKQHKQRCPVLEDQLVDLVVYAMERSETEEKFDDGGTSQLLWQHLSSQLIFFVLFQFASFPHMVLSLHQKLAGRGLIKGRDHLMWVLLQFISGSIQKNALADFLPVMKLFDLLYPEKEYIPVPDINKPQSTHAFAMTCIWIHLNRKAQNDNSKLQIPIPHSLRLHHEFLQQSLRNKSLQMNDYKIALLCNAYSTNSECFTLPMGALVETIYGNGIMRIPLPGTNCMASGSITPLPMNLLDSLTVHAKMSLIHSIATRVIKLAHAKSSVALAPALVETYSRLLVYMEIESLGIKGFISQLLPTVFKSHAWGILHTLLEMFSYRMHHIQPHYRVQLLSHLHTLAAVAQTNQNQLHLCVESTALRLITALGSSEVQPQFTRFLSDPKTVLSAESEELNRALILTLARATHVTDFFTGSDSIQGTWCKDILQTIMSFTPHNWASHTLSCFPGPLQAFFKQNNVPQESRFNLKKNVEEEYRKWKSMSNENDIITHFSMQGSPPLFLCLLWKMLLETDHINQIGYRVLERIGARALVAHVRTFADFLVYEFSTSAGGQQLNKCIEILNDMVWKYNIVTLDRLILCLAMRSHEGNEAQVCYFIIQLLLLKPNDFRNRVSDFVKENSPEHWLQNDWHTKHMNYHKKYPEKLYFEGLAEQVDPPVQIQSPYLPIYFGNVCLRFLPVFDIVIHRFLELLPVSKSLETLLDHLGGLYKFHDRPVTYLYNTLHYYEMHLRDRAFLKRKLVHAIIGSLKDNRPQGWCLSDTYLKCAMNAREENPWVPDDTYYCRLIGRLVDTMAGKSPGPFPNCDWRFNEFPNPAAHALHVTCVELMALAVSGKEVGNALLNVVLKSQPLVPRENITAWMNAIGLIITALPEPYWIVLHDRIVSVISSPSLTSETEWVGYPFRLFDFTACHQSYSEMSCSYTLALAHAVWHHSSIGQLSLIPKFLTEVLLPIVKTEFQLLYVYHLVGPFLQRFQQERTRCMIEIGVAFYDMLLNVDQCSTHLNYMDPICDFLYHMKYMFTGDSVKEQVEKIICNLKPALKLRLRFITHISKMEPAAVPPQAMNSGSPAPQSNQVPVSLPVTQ

Row | Molecule | Kd [1] [nM] | other results
1 | GST-fused Elk-1^1P (S383P) (308–401)-6His, phosphorylated only at S383 (from UniProt P19419 308-401) (domain or fragment) | 81 | 
2 | GST-fused Elk-1^2P (T368P/S383P) (308–401)-6His, phosphorylated at T368 and S383 (from UniProt P19419 308-401) (domain or fragment) | 42 | 
3 | GST-fused Elk-1^2P (T368P/S389P) (308–401)-6His, phosphorylated at T368 and S389 (from UniProt P19419 308-401) (domain or fragment) | 75 | 
4 | GST-fused Elk-1^3P (308–401)-6His, phosphorylated at T368, S383 and S389 (domain or fragment, UniProt P19419 308-401, looked up, phosphorylated at T368, S383 and S389 by co-expressed ERK kinase, In pGEX-4T1 (synthesised by Genscript); also called triply phosphorylated Elk-1; source: E. coli BL21 (DE3), co-expressed with MBP-ERK2-GOF/MEK1DD, purified (GSTrap 4B and/or HisTap HP)) SQPQKGRKPRDLELPLSPSLLGGPGPERAPGSGSGSGLQAPGPALAPSLLPTHTLAPVLLTPSSLPPSIHFWSTLSPIAPRSPAKLSFQFPSSG |  | Kd ([1]; both partners purified): 60 nM
5 | phosphorylated GST-Elk-1^8P (308–428)-6His (domain or fragment, UniProt P19419 308-428, looked up, phosphorylated in E. coli by co-expressed ERK2-GOF/MEK1DD; which of the eight S/T-P sites carry phosphate is not stated, In pGEX-6P1; also called Elk-1 TAD; Gal4-Elk-1^8P (308–428) in the reporter assays; source: E. coli BL21 (DE3), co-expressed with MBP-ERK2-GOF/MEK1DD, purified (GSTrap 4B and/or HisTap HP); not shown: GST, N-terminal, kept) SQPQKGRKPRDLELPLSPSLLGGPGPERTPGSGSGSGLQAPGPALTPSLLPTHTLTPVLLTPSSLPPSIHFWSTLSPIAPRSPAKLSFQFPSSGSAQVHIPSISVDGLSTPVVLSPGPQKP |  | binding result [2]: binds
